B1: F-BAR and double SH3 domains protein 1, residues 467 to 528; numbered along this chain, Q86WN1 (parent)
chain: RALPCPAHVVFRYQAGREDELTITEGEWLEVIEEGDADEWVKARNQHGEVGFVPERYLNFPD

Variants of: B1
Test: abundance fitness (aPCA) (normalised: wild type 0, dead -1); higher = more abundant; growth selection in yeast, the domain comes from the species named
Conditions: Homo sapiens

Abundance fitness of substitutions, site by site:
A37: R 0.141 | V 0.052 | C 0.118 | F -0.023 | T 0.014 | I -0.026 | M 0.018 | Q 0.071 | W -0.044 | D -0.048 | G -0.05 | K 0.14 | H -0.005 | P -0.107
G48: P -0.623 | K -0.328 | E -0.169 | A -0.39 | F -0.293 | I -0.787 | D -0.217 | M -0.296 | Q -0.574 | S -0.132 | L -0.423 | H -0.34 | V -0.741 | Y -0.494 | R -0.376 | W -0.435
D38: Q 0.021 | R 0.053 | S 0.005 | Y -0.122 | M -0.17 | I -0.066 | W -0.154 | G 0.023 | L 0.016 | E 0.101 | F -0.127 | K -0.08 | A 0.057 | C -0.047 | N -0.017 | H -0.002
A43: M -0.548 | V -0.056 | N -0.763 | T -0.409 | I -0.297 | S -0.578 | G -0.299 | W -0.83 | K -0.71 | Q -0.839 | L -0.853 | Y -0.914 | D -0.793 | C -0.038 | R -0.842 | P -0.865 | H -0.629
E34: P -0.112 | R -0.044 | S -0.101 | Y -0.053 | V -0.004 | M -0.085 | W -0.074 | N -0.016 | L -0.028 | T -0.048 | Q -0.026
V41: C -0.013 | A -0.495 | Y -0.154 | Q -0.949 | N -1.01 | L -0.199 | S -0.73 | F -0.262 | I -0.353 | E -1.12 | H -0.929 | P -0.94 | M -0.199 | G -0.72 | T -0.609 | K -0.411 | R -0.526 | D -0.815
N45: M -0.891 | S -0.571 | R -0.941 | I -0.212 | G -0.576 | T -0.402 | Q -0.884 | W -1.16 | V -0.949 | F -0.869 | D -0.571 | K -0.447 | L -0.737 | A -0.567 | E -1.08 | P -0.301 | C -0.994 | H -0.166 | Y -0.377
W40: H -0.01 | Y 0.079 | R 0.121 | M 0.037 | G -0.547 | T -0.101 | C -0.181 | V -0.111 | Q -0.122 | A -0.3 | L -0.134 | S -0.25 | D 0.028 | K -0.051 | N -0.33 | E -0.196 | I -0.139
D36: E 0.032 | A -0.165 | W 0.006 | R -0.016 | S -0.045 | Y -0.171 | G -0.049 | L -0.01 | F 0.005 | H 0.033 | K 0.112 | C -0.182 | Q 0.073 | P 0.13 | T -0.042
G51: D -0.706 | V -0.857 | L -0.273 | F -0.669 | W -0.954 | Y -0.736 | A -0.691 | E -0.863 | K -0.42 | C -0.958 | N -1.17 | P -0.952 | Q -1.03 | H -0.973 | T -0.698 | M -0.843
K42: T -0.076 | R -0.182 | S -0.325 | W -0.181 | Y -0.381 | E -0.496 | C -0.25 | G -0.775 | P -0.974 | A -0.511 | Q -0.129 | D -0.664 | I 0.092 | F -0.207 | L -0.166 | V -0.105 | M -0.176 | N -0.575 | H -0.571
V50: H -0.554 | A -0.211 | E 0.016 | K -0.187 | N -0.737 | D -0.599 | R -0.607 | C -0.191 | T -0.11 | F -0.29 | P -0.833 | M -0.108 | S -0.148 | Q -0.093 | L -0.285 | I -0.235
F52: A -0.249 | C -0.189 | Y 0.093 | T -0.284 | M -0.019 | W 0.033 | G -0.491 | Q -0.259 | D -0.431 | K 0.048 | I -0.152 | N -0.175 | V -0.127 | L 0.104 | S -0.059 | H -0.199 | E -0.322 | R -0.063
H47: W -0.176 | K 0.048 | T -0.172 | R 0.092 | V 0.004 | I -0.176 | A 0.164 | P -0.585 | C -0.045 | L 0.01 | E -0.171 | Y -0.215 | F -0.246 | G 0.051 | M -0.039 | D -0.006 | Q -0.026
Q46: D -0.198 | W -0.228 | L -0.056 | S -0.04 | T -0.01 | P -0.334 | F -0.207 | I -0.142 | C -0.018 | A 0.036 | R -0.028 | Y -0.114 | G -0.082 | E -0.052 | K 0.074 | N -0.027 | M -0.088 | H -0.163 | V -0.088
G35: Q -0.379 | N -0.276 | D -0.211 | H -0.409 | F -0.172 | A -0.045 | S -0.07 | K -0.126 | I -0.232 | L -0.318 | E -0.407 | V -0.005 | P -0.371 | W -0.332 | M -0.202 | Y -0.223 | R -0.072 | T 0.063 | C -0.179
V53: G -0.624 | T -0.868 | E -0.934 | I -0.031 | F -0.823 | N -0.829 | W -1.03 | Q -0.624 | S -0.981 | A -0.564 | P -0.922 | D -0.745 | H -0.675 | M -0.673 | R -0.662 | C -0.262 | Y -0.466
R44: F -0.756 | K 0.003 | Y -0.587 | G -0.898 | V -0.165 | I -0.036 | P -0.673 | Q -0.23 | C -0.178 | S -0.253 | T -0.23 | L -0.342 | H -0.74 | W -0.947 | E -0.268 | M -0.175
E49: H -0.015 | F -0.088 | D -0.118 | K -0.026 | P -1.05 | Q 0.101 | R -0.085 | S -0.022 | Y -0.427 | I 0.1 | C -0.029 | T -0.075 | V -0.139 | A -0.131 | L -0.13
E39: S 0.028 | V -0.184 | Y -0.226 | G 0.066 | H 0.188 | I -0.1 | Q -0.027 | M 0.148 | C -0.103 | R 0.017 | W -0.227 | K 0.013 | F 0.042 | N 0.227 | L -0.146 | D -0.228 | A -0.016 | T 0.02 | P -0.207
